# Earlier results as cited in PMC11391413.
# Read-outs that look alike come from different tables or passages of the source.
# What was measured:
# SOS1 S4 (Homo sapiens) [1] = target: SOS1 S4 (Homo sapiens)
# [2] = target: SOS1 S4 PRM (Homo sapiens); test: NMR
# [3] = target: SOS1 S8 PRM (Homo sapiens) (UniProt Q07889); test: NMR
# [4] = target: SOS1 S10 PRM (Homo sapiens) (UniProt Q07889); test: NMR
# SOS1 S2 (Homo sapiens) [5] = target: SOS1 S2 (Homo sapiens)
# SOS1 S4 (Homo sapiens) [6] = target: SOS1 S4 (Homo sapiens); remark: listed apart in the source
# SOS1 S2 (Homo sapiens) [7] = target: SOS1 S2 (Homo sapiens); remark: listed apart in the source
# [8] = target: SOS1 S7 PRM (Homo sapiens) (UniProt Q07889); test: NMR
# Sequence of GRB2 CSH3 (P62993 156-215): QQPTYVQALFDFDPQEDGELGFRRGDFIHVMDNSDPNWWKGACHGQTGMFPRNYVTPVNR
# Sequence of GRB2 NSH3 (P62993 1-58): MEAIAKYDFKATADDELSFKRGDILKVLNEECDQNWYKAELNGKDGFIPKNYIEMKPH
Substance,Kd (SOS1 S4 (Homo sapiens) [1]) [µM],Kd [2] [µM],Kd [3] [µM],Kd [4] [µM],Kd (SOS1 S2 (Homo sapiens) [5]) [µM],Kd (SOS1 S4 (Homo sapiens) [6]) [µM],Kd (SOS1 S2 (Homo sapiens) [7]) [µM],Kd [8] [µM],Kd (SOS1 S1 (Homo sapiens)) [µM]
GRB2 CSH3 (from UniProt P62993),142,142,400,131,440,–,–,–,–
GRB2 NSH3 (from UniProt P62993),–,37,208,71.5,–,37,250,580,730
